Test results published in US20250361274A1, “PEPTIDE AND PEPTIDE-CONTAINING AGENT” (PEPTIDREAM INC., priority 2022, published 2025).
Numbered stars: 1 amine (or outer) side, 2 acyl side, 3 side chain; on linkers, the order of the positions; unused ones are H or OH. Bridge positions count the residues as written; N and C are the ends. Square brackets hold non-standard residues; d marks the D form. MeKCOpipzaa = N6-(4-(carboxymethyl)piperazine-1-carbonyl)-N2-methyl-L-lysine, CN([C@@H](CCCCNC(=O)N1CCN(CC(=O)[*:3])CC1)C(=O)[*:2])[*:1]; KCOpipzaa = N6-(4-(carboxymethyl)piperazine-1-carbonyl)-L-lysine, O=C(NCCCC[C@H](N[*:1])C(=O)[*:2])N1CCN(CC(=O)[*:3])CC1; 3Pal(6-Ph) = N[C@@H](Cc1ccc(-c2ccccc2)nc1)C(=O)O; Phe(4-COOH) = N[C@@H](Cc1ccc(C(=O)O)cc1)C(=O)O; Pro(trans-4-F) = O=C(O)[C@@H]1C[C@@H](F)CN1; Bip = N[C@@H](Cc1ccc(-c2ccccc2)cc1)C(=O)O; Pro(cis-4-F) = O=C(O)[C@@H]1C[C@H](F)CN1; Phe(4-F) = N[C@@H](Cc1ccc(F)cc1)C(=O)O; Pro(4,4-F2) = O=C(O)[C@@H]1CC(F)(F)CN1; 4Pal = N[C@@H](Cc1ccncc1)C(=O)O; βAla = NCCC(=O)O

Key:
BMP4 = molecular target: T1, BMP4 (Homo sapiens, UniProt P12644); assay: BMP4 signal transduction inhibitory activity: SMAD1 phosphorylation by BMP4 stimulus, AlphaLISA SureFire, A549 cells; format: cell-based; conditions: inhibition of SMAD1 phosphorylation by BMP4 stimulus, A549 cells; peptides of Synthesis 2; classes A-C, ND
T1 sequence (P12644 293-408): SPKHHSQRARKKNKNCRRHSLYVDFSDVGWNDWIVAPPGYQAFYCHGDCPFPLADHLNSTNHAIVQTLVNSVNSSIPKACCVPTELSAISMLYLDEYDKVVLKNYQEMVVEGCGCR

BMP7 = molecular target: T2, BMP7 (Homo sapiens, UniProt P18075); assay: BMP7 signal transduction inhibitory activity: SMAD1 phosphorylation by BMP7 stimulus, A549 cells; format: cell-based; conditions: inhibition of SMAD1 phosphorylation by BMP7 stimulus, A549 cells; peptides of Synthesis 2; classes A-D, ND
T2 sequence (P18075 293-431): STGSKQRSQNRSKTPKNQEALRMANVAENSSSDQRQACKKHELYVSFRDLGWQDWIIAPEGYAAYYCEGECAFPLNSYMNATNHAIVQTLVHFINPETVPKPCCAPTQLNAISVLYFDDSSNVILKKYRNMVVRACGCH
Procedure, shortened: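 Inhibition was measured as loss of BMP7-induced SMAD1 phosphorylation, using 10 nM BMP7 on A549 cells. Most peptides were given as three-concentration sets, such as 1/10/100, 10/100/1,000, 100/300/1,000 or 10/30/90 nM. Others were given as eight 1/3-ratio dilutions from 100 or 1,000 nM, alongside Noggin as control.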

Row | Substance | aLISA BMP4 (BMP4) | aLISA BMP7 (BMP7)
1 | 79 ({CH2CO}-E[KCOpipzaa]VYVDR[Bip][KCOpipzaa]YP[Bip][Phe(4-F)][Phe(4-COOH)][Phe(4-COOH)]SCG-NH2; thioether N-17; not fully specified) [compound 79] | C (showed an inhibitory activity of less than 50% in 0.2 nM-addition zone and showed an inhibitory activity of 50% or more in 2 nM-addition zone were defined as B or C) | D (showed less than 50% of inhibitory activity in 100 nM-addition zone)
2 | 80 ({CH2CO}-E[KCOpipzaa]VYVDR[Bip][KCOpipzaa]YP[Bip][Phe(4-F)][Phe(4-COOH)][4Pal]SCG-NH2; thioether N-17; not fully specified) [compound 80] | A (showed an inhibitory activity of 50% or more in a zone to which the peptide was added to in an amount of 0.2 nM) | C (showed less than 50% of inhibitory activity in 10 nM-addition zone and showed 50% or more of inhibitory activity in 100 nM-addition zone)
3 | 81 ({CH2CO}-E[KCOpipzaa]VYVDR[Bip][MeKCOpipzaa]YP[Bip][Phe(4-F)][Phe(4-COOH)][4Pal]SCG-NH2; thioether N-17; not fully specified) [compound 81] | A (showed an inhibitory activity of 50% or more in a zone to which the peptide was added to in an amount of 0.2 nM) | C (showed less than 50% of inhibitory activity in 10 nM-addition zone and showed 50% or more of inhibitory activity in 100 nM-addition zone)
4 | 85 ({CH2CO}-ERVYVDR[Bip]SYV[Bip]Y[Phe(4-COOH)][Phe(4-COOH)]SC[βAla][dE]-OH; thioether N-17; not fully specified) [compound 85] | A (showed an inhibitory activity of 50% or more in a zone to which the peptide was added to in an amount of 0.2 nM) | C (showed less than 50% of inhibitory activity in 10 nM-addition zone and showed 50% or more of inhibitory activity in 100 nM-addition zone)
5 | 92 ({CH2CO}-EKVYVDK[Bip]YYV[Bip][Phe(4-F)][Phe(4-COOH)][4Pal]SCG-NH2; thioether N-17; not fully specified) [compound 92] | C (showed an inhibitory activity of less than 50% in 0.2 nM-addition zone and showed an inhibitory activity of 50% or more in 2 nM-addition zone were defined as B or C) | C (showed less than 50% of inhibitory activity in 10 nM-addition zone and showed 50% or more of inhibitory activity in 100 nM-addition zone)
6 | 94 ({CH2CO}-A[KCOpipzaa]VYV[KCOpipzaa]R[Bip]PYV[Bip]Y[Phe(4-COOH)][Phe(4-COOH)]SC[βAla][dE]-OH; thioether N-17; not fully specified) [compound 94] | A (showed an inhibitory activity of 50% or more in a zone to which the peptide was added to in an amount of 0.2 nM) | C (showed less than 50% of inhibitory activity in 10 nM-addition zone and showed 50% or more of inhibitory activity in 100 nM-addition zone)
7 | 95 ({CH2CO}-ERVYVDR[Bip]SYP[Bip]Y[Phe(4-COOH)][Phe(4-COOH)]SC[βAla][dE]-OH; thioether N-17; not fully specified) [compound 95] | A (showed an inhibitory activity of 50% or more in a zone to which the peptide was added to in an amount of 0.2 nM) | C (showed less than 50% of inhibitory activity in 10 nM-addition zone and showed 50% or more of inhibitory activity in 100 nM-addition zone)
8 | 96 ({CH2CO}-ERVYVDR[3Pal(6-Ph)]SYP[Bip]Y[Phe(4-COOH)][Phe(4-COOH)]SC[βAla][dE]-OH; thioether N-17; not fully specified) [compound 96] | A (showed an inhibitory activity of 50% or more in a zone to which the peptide was added to in an amount of 0.2 nM) | C (showed less than 50% of inhibitory activity in 10 nM-addition zone and showed 50% or more of inhibitory activity in 100 nM-addition zone)
9 | 97 ({CH2CO}-ERVYV[KCOpipzaa]R[Bip]SYP[Bip]Y[Phe(4-COOH)][Phe(4-COOH)]SC[βAla][dE]-OH; thioether N-17; not fully specified) [compound 97] | A (showed an inhibitory activity of 50% or more in a zone to which the peptide was added to in an amount of 0.2 nM) | B (showed less than 50% of inhibitory activity in 1 nM-addition zone and showed 50% or more of inhibitory activity in 10 nM-addition zone)
10 | 98 ({CH2CO}-ERVYV[KCOpipzaa]R[3Pal(6-Ph)]SYP[Bip]Y[Phe(4-COOH)][Phe(4-COOH)]SC[βAla][dE]-OH; thioether N-17; not fully specified) [compound 98] | A (showed an inhibitory activity of 50% or more in a zone to which the peptide was added to in an amount of 0.2 nM) | C (showed less than 50% of inhibitory activity in 10 nM-addition zone and showed 50% or more of inhibitory activity in 100 nM-addition zone)
11 | 99 ({CH2CO}-E[KCOpipzaa]VYVDR[Bip]SYP[Bip]Y[Phe(4-COOH)][Phe(4-COOH)]SC[βAla][dE]-OH; thioether N-17; not fully specified) [compound 99] | A (showed an inhibitory activity of 50% or more in a zone to which the peptide was added to in an amount of 0.2 nM) | C (showed less than 50% of inhibitory activity in 10 nM-addition zone and showed 50% or more of inhibitory activity in 100 nM-addition zone)
12 | 100 ({CH2CO}-E[KCOpipzaa]VYV[KCOpipzaa]R[Bip]SYP[Bip]Y[Phe(4-COOH)][Phe(4-COOH)]SC[βAla][dE]-OH; thioether N-17; not fully specified) [compound 100] | A (showed an inhibitory activity of 50% or more in a zone to which the peptide was added to in an amount of 0.2 nM) | C (showed less than 50% of inhibitory activity in 10 nM-addition zone and showed 50% or more of inhibitory activity in 100 nM-addition zone)
13 | 101 ({CH2CO}-E[KCOpipzaa]VYV[KCOpipzaa]R[3Pal(6-Ph)]SYP[Bip]Y[Phe(4-COOH)][Phe(4-COOH)]SC[βAla][dE]-OH; thioether N-17; not fully specified) [compound 101] | A (showed an inhibitory activity of 50% or more in a zone to which the peptide was added to in an amount of 0.2 nM) | C (showed less than 50% of inhibitory activity in 10 nM-addition zone and showed 50% or more of inhibitory activity in 100 nM-addition zone)
14 | 102 ({CH2CO}-E[KCOpipzaa]VYV[KCOpipzaa]R[Bip]SYV[Bip]Y[Phe(4-COOH)][Phe(4-COOH)]SC[βAla][dE]-OH; thioether N-17; not fully specified) [compound 102] | C (showed an inhibitory activity of less than 50% in 0.2 nM-addition zone and showed an inhibitory activity of 50% or more in 2 nM-addition zone were defined as B or C) | C (showed less than 50% of inhibitory activity in 10 nM-addition zone and showed 50% or more of inhibitory activity in 100 nM-addition zone)
15 | 103 ({CH2CO}-ERV[Phe(4-COOH)]V[KCOpipzaa]R[Bip]SYP[Bip]Y[Phe(4-COOH)][Phe(4-COOH)]SC[βAla][dE]-OH; thioether N-17; not fully specified) [compound 103] | A (showed an inhibitory activity of 50% or more in a zone to which the peptide was added to in an amount of 0.2 nM) | A (showed 50% or more of inhibitory activity in a zone to which the peptide was added in an amount of 1 nM)
16 | 109 ({CH2CO}-ERVYVDR[Bip]PY[Pro(cis-4-F)][Bip]Y[Phe(4-COOH)][Phe(4-COOH)]SC[βAla][dE]-OH; thioether N-17; not fully specified) [compound 109] | C (showed an inhibitory activity of less than 50% in 0.2 nM-addition zone and showed an inhibitory activity of 50% or more in 2 nM-addition zone were defined as B or C) | C (showed less than 50% of inhibitory activity in 10 nM-addition zone and showed 50% or more of inhibitory activity in 100 nM-addition zone)
17 | 110 ({CH2CO}-ERVYVDR[Bip]PY[Pro(trans-4-F)][Bip]Y[Phe(4-COOH)][Phe(4-COOH)]SC[βAla][dE]-OH; thioether N-17; not fully specified) [compound 110] | A (showed an inhibitory activity of 50% or more in a zone to which the peptide was added to in an amount of 0.2 nM) | B (showed less than 50% of inhibitory activity in 1 nM-addition zone and showed 50% or more of inhibitory activity in 10 nM-addition zone)
18 | 111 ({CH2CO}-ERVYVDR[Bip]PY[Pro(4,4-F2)][Bip]Y[Phe(4-COOH)][Phe(4-COOH)]SC[βAla][dE]-OH; thioether N-17; not fully specified) [compound 111] | A (showed an inhibitory activity of 50% or more in a zone to which the peptide was added to in an amount of 0.2 nM) | C (showed less than 50% of inhibitory activity in 10 nM-addition zone and showed 50% or more of inhibitory activity in 100 nM-addition zone)
